From the supplement of paper PMC9170038

Test system: MS2 coat protein
Test: apparent KD of MS2 coat protein; designed switch direction (-1 OFF switch, 1 ON switch): -1; higher = weaker reporter binding
Summary of the method: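 Transcription of designed RNA switches on Illumina chips was done by stalled E. coli RNA polymerase. SNAP-549-labelled MS2 coat protein was then titrated in doubling steps from 0.7 or 1.5 nM to 3 µM, with steps of 0.8–1.5 h at the lowest and 10–20 min at the highest concentration. The per-design median over clusters of curve-fitted normalised fluorescence is reported as apparent KD.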

[1] = input ligand: microRNA oligo, concentration not stated
[2] = Eterna round: R95, input ligand: FMN 200 uM
[3] = Eterna round: R95, input ligand: microRNA oligo, concentration not stated
[4] = Eterna round: R95, input ligand: none

Sequence	apparent KD of MS2 coat protein (input ligand: FMN 200 uM)	apparent KD of MS2 coat protein (input ligand: none)	apparent KD of MS2 coat protein [1]	apparent KD of MS2 coat protein [2]	apparent KD of MS2 coat protein [3]	apparent KD of MS2 coat protein [4]
GCUAAACAAGGAUAUACAUGAGGAUCACCCAUGUAGGCAUAGGGUGAAGCACGCCUAUGUAGAAGGUGUCCGCA [Eternabot (Original) Solution 34] (Eterna round: R97, puzzle: Exclusion 3)	80.6 nM	185 nM	–	–	–	–
GCUAGAGCAGGAUAUUCAAAACCUCACAUGAGGAUCACCCAUGUGGCCGAAAGGCCGGGAGGAGAAGGGCUCUAGC [Mat - Exclusion 5 - Eli mod - D84] (Eterna round: R96, puzzle: Exclusion 5)	42.4 nM	19.4 nM	14.3 nM	–	–	–
GCUAGAGCAGGAUAUUCAAAACCUCACAUGAGGAUCACCCAUGUGGCCGAAAGGCCGGGAGGAGAAGGGCUCUAGC [Mat - Exclusion 5 - Eli mod - D84] (puzzle: Exclusion 5)	–	–	–	41.6 nM	15.1 nM	17.2 nM
GCUAGAGCAGGAUAUUUAGAUCCUCACAUGAGGAUCACCCAUGUGGUCGAAAGACUAAGAAGAGAAGGGCUCUAGC [Omei Ex5 E21] (Eterna round: R97, puzzle: Exclusion 5)	326 nM	944 nM	–	–	–	–
GCUAGUCAUGUCAGGAUAUGCAGAUCCUUGGAUCUGCAGAAGGGACAUGAGGAUCACCCAUGUGCCUAACUAGC [Mat - Exclusion 4 - JL Mod - D14] (Eterna round: R97, puzzle: Brourd's mod of Exclusion 4)	479 nM	41.6 nM	–	–	–	–
GCUCGACAUGAGGAUCACCCAUGUCAGGAUAUCUUUGGAGGAGGCUUGCCGAUGAUAGAGAGAAGGGACAGGUA [Eternabot (L2) Solution 70] (Eterna round: R97, puzzle: Exclusion 1)	26.7 nM	22.4 nM	–	–	–	–
GCUGACAAGCUGGAGACAGCAGAGACAUGAGGAUCACCCAUGUAGGAUAUCGAUGCGAAAAGCAUCGAGAAGGGCAUAGUCAGC [exng3 v2 a] (Eterna round: R96, puzzle: Exclusion NG 3)	13.1 nM	17.2 nM	9.71 nM	–	–	–
GCUGCGCGAGGAUAUGCGGUUUGCGCUGUGGCCCGUGGCGUACAUGAGGAUCACCCAUGUAGAAGGCGUGUGGG [Apr-15 SS2-55] (Eterna round: R96, puzzle: Exclusion 2)	27.6 nM	30.1 nM	21.3 nM	–	–	–
GCUGCGCGAGGAUAUGCGGUUUGCGCUGUGGCCCGUGGCGUACAUGAGGAUCACCCAUGUAGAAGGCGUGUGGG [Apr-15 SS2-55] (puzzle: Exclusion 2)	–	–	–	–	18.6 nM	–
GCUGGAAGAGGAUAUACAUAAGGUGCGUCAGCACCGGGCCUACAUGAGGAUCACCCAUGUAGAAGGCUUCCAGC [EX2 #78] (Eterna round: R97, puzzle: Exclusion 2)	55.1 nM	15.2 nM	–	–	–	–
GCUGGACAUGAGGAUCACCCAUGUGAGGAUAUCGGCUGGUACGUGUUGGCUGGCAUCUCGAGAAGGCACAUAGU [Exclusion 1 V63] (puzzle: Exclusion 1)	–	–	–	–	28.2 nM	–
GCUGGUCAAGGAUAUACAUGAGGAUCACCCAUGUGAUUAGCAGUCCUCGGACUGCAAUGUAGAAGGUGACCAGC [E3/2-C1] (Eterna round: R97, puzzle: Exclusion 3)	1410 nM	308 nM	–	–	–	–
GCUGGUCGAGGAUAUGCAUUCGUGCUUCGGCACGUAAGGUCACAUGAGGAUCACCCAUGUAGAAGGUGACCAGC [E2/6-B1] (Eterna round: R97, puzzle: Exclusion 2)	23.9 nM	17.8 nM	–	–	–	–
GCUGUAGAAGGAUAUGCUUCGACUCACAUGAGGAUCACCCAUGUCUUCGUGCAGUCGUCUGCAGAAGGUCUCCAGU [EX5 C.8] (Eterna round: R97, puzzle: Exclusion 5)	1820 nM	504 nM	–	–	–	–
GCUUCCCAUGUGAGGAUAUGUAGGGUUAACCCGAGGCAGAAGGCACAUGAGGAUCACCCAUGUUAAAACUUCUA [Xecera] (puzzle: Brourd's mod of Exclusion 4)	–	–	–	–	30.8 nM	–
GCUUGCGAAGUAAGGAUAUCGGUCCGAAAGGACUACGAGAAGGUACAUGAGGAUCACCCAUGUGCGAGCAGAAU [Mod of Zala 24 - Jieux - Brourd's mod of Exclusion 4] (Eterna round: R97, puzzle: Brourd's mod of Exclusion 4)	19.6 nM	23 nM	–	–	–	–
GCUUGGCGAGGAUAUACAUGAGGAUCACCCAUGUGAGAGAAGAAAGUGAGGAAGAAAAGUAGAAGGCGCUGAGG [Mat - Exclusion 3 - Mod of Salish D61] (puzzle: Exclusion 3)	–	–	–	372 nM	56.4 nM	63 nM

Sequence	apparent KD of MS2 coat protein (input ligand: FMN 200 uM)	apparent KD of MS2 coat protein (input ligand: none)	apparent KD of MS2 coat protein [1]	apparent KD of MS2 coat protein [2]	apparent KD of MS2 coat protein [3]	apparent KD of MS2 coat protein [4]
GCUUGUAGAGGAUAUACAAGGGCCCGAGCGGCGAGAGCCGCACAUGAGGAUCACCCAUGUAGAAGGCUACUAUA [JL-ex2-4.21 ViennaUCT mod] (Eterna round: R97, puzzle: Exclusion 2)	201 nM	237 nM	–	–	–	–
GCUUUUCUUUUCCUUUCUUACAUGAGGAUCACCCAUGUUUCUUGUCGUGCUCGCGUUGUUCGUCUGUCUGUCUGUUG [salish99_TOv1_r3_081] (puzzle: Sensor v3, turn-off variant 1)	–	–	–	37.4 nM	35.5 nM	47.6 nM
GGAAAACGCUGAGGAUAUGGAAGGAAAGGAAGACCAGAAGGCAGGGUCACACAACAUGAGGAUCACCCAUGUGUGUGUAGCGGA [exng1 ex3] (Eterna round: R96, puzzle: Exclusion NG 1)	9.75 nM	12.7 nM	10.2 nM	–	–	–
GGAACGACAGGAUAUACAUGAGGAUCACCCAUGUAAAGAAGAGUAAAAUGUGAAAGCGGUAGAAGGGUCAAGAA [AK-MS2ROC-r4-exclusion3-6] (Eterna round: R97, puzzle: Exclusion 3)	42.3 nM	43.9 nM	–	–	–	–
GGAAGAAUGAGUAGUCCUCAUUGAAGAGAAUAGUAAGAAACAUGAGGAUCACCCAUGUAAGAACAAGCUUUUGCUCA [JR_Sv3TOV2_Sub003] (puzzle: Sensor v3, turn-off variant 2)	–	–	–	227 nM	85 nM	179 nM
GGAAGAGAGAUAGGAUAUCAGAGGAAGAUGGUGAGAGAGACAUGAGGAUCACCCAUGUGAAGGAAUGAGAAGGGUCAGAAGGAA [EXNG2 V2 h] (Eterna round: R96, puzzle: Exclusion NG 2)	130 nM	101 nM	133 nM	–	–	–
GGAAGGCGAGGAUAUACAAUGCCGGAAACGGCAGGCGUGAGACAUGAGGAUCACCCAUGUAGAAGGCGCGGAGA [AK-MS2ROC-r4-exclusion2-15] (Eterna round: R97, puzzle: Exclusion 2)	101 nM	105 nM	–	–	–	–
GGAAGUAGAAACCGAUCCUACAUGAGGAUCACCCAUGUAGCAAGACGUGCACGCGAAGCUCGUCAGACUACCAGAAU [salish99_TOv1_r3_010] (puzzle: Sensor v3, turn-off variant 1)	–	–	–	341 nM	268 nM	286 nM
GGACAUAAAGUCAGGAUAUUAAGGCGACCACGCGAUGAGAAGGGACAUGAGGAUCACCCAUGUGAUUCUCAUCA [Ingebive] (Eterna round: R97, puzzle: Brourd's mod of Exclusion 4)	74.1 nM	72.6 nM	–	–	–	–
GGACGGAAAGUGAGGAUAUGCUCUACCUCGGUAGAGCAGAAGGCACAUGAGGAUCACCCAUGUGAAAACUGUUC [Omei Ex4B B30] (Eterna round: R97, puzzle: Brourd's mod of Exclusion 4)	27.9 nM	15.2 nM	–	–	–	–
GGACGGUUAGUCAGGAUAUGCUCUACCUCGGUAGAGCAGAAGGGACAUGAGGAUCACCCAUGUGAAAACUGUUC [Omei Ex4B B37] (Eterna round: R97, puzzle: Brourd's mod of Exclusion 4)	30.2 nM	24.9 nM	–	–	–	–
GGAGAGAGAGGAUAUGGAGGUUGGAACAUGAGGAUCACCCAUGUUAAACCUCAUGACCGACUAGAAGGCUCAGUCC [AK-MS2ROC-r4-exclusion5-9.1] (Eterna round: R97, puzzle: Exclusion 5)	17.8 nM	18.9 nM	–	–	–	–
GGAGGAAGAGAGGAUAUGCGCGCAAGGAGCUUAGCAGAAGGUUCAACAUGAGGAUCACCCAUGUAUGAUCCUCA [AK-MS2ROC-r4-exclusion6-5] (Eterna round: R97, puzzle: Exclusion 6)	341 nM	318 nM	–	–	–	–
GGAUAAAAGUGAGGAUAUGAGGAGAGAGAGAGAUCAGAAGGCACACAUGAGGAUCACCCAUGUGAGUUCUCGAUAAGAAACACG [Prohibition 55 - Jieux - Exclusion NG 1] (Eterna round: R96, puzzle: Exclusion NG 1)	14.3 nM	15.9 nM	13.2 nM	–	–	–
GGAUCACGAGGAUAUCGAUUUUAGUACAUGAGGAUCACCCAUGUUGUCCAGGUCUCGAUUCGAGAAGGCGUGAUUC [LRO-Ex5-05] (puzzle: Exclusion 5)	–	–	–	–	34.5 nM	–
GGAUCGAAUGUGAGGAUAUGCUGGUCCUUGGAUCAGCAGAAGGCACAUGAGGAUCACCCAUGUGGUUCCGAUCC (Eterna round: R97, puzzle: Brourd's mod of Exclusion 4)	161 nM	876 nM	–	–	–	–
GGAUCGAGUGUGAGGAUAUACCUAUGGAAACAUAGGUAGAAGGCACAUGAGGAUCACCCAUGUUCCAACGGUCC [Mat - Exclusion 4 - Eli Mod - D11] (Eterna round: R97, puzzle: Brourd's mod of Exclusion 4)	715 nM	90.6 nM	–	–	–	–
